± gives the standard deviation of the averaged measurements.
Assay: total protein half-life in vivo (active degradation + dilution); higher = more stable protein
[1] = E. coli NCM3722 delta-clpP delta-lon delta-hslV, growth: N-lim chemostat, doubling time 6 h
[2] = E. coli NCM3722 delta-clpP, growth: N-lim chemostat, doubling time 6 h
[3] = E. coli NCM3722 delta-hslV, growth: N-lim chemostat, doubling time 6 h
[4] = E. coli NCM3722 delta-smpB, growth: N-lim chemostat, doubling time 6 h
[5] = wild type E. coli NCM3722, growth: C-lim chemostat, doubling time 3 h
[6] = wild type E. coli NCM3722, growth: C-lim chemostat, doubling time 6 h
[7] = wild type E. coli NCM3722, growth: C-lim chemostat, doubling time 12 h
[8] = wild type E. coli NCM3722, growth: N-lim chemostat, doubling time 6 h
[9] = wild type E. coli NCM3722, growth: N-lim chemostat, doubling time 12 h
[10] = wild type E. coli NCM3722, growth: P-lim chemostat, doubling time 6 h
[11] = wild type E. coli NCM3722, growth: P-lim chemostat, doubling time 12 h
[12] = E. coli NCM3722 delta-lon, growth: N-lim chemostat, doubling time 6 h

Sequence	total protein half-life in vivo [1]	total protein half-life in vivo [2]	total protein half-life in vivo [3]	total protein half-life in vivo [4]	total protein half-life in vivo [5]	total protein half-life in vivo [6]	total protein half-life in vivo [7]	total protein half-life in vivo [8]	total protein half-life in vivo [9]	total protein half-life in vivo [10]	total protein half-life in vivo [11]	total protein half-life in vivo [12]
MSPTIYDIARVAGVSKSTVSRVLNKQTNISPEAREKVLRAIEELQYQPNKLARALTSSGFDAIMVISTRSTKTTAGNPFFSEVLHAITAKAEEEGFDVILQTSHNPAEDLQKCESKIKQKMIKGIIMLSSPADESFFAQLDKYDIPVVVIGKVEGQYAHVYSVDTDNFGDSIALTDALIESGHQNIACLHAPLDVHVSVDRVNGYKQSLAAHNIAVRDEWIVDGGYTHETALKAARQLLSQSPLPEAVFATDSLKLMSIYRAAAEKNIAIPQQLAVVGYSNETLSFILTPAPGGIDVPTQELGQQSCELLFRLISGKPSPQNITVATHMTLK	5.84 ± 0.79 h	4.18 ± 1.6 h	5.76 ± 0.6 h	4.86 ± 0.18 h	2.48 ± 0.17 h	5.41 ± 0.97 h	10.2 ± 2.9 h	5.34 ± 0.57 h	9.3 ± 0.42 h	5.06 ± 0.33 h	10.6 ± 2.2 h	–
MSQAKSNKMGVVQLTILTMVNMMGSGIIMLPTKLAEVGTISIISWLVTAVGSMALAWAFAKCGMFSRKSGGMGGYAEYAFGKSGNFMANYTYGVSLLIANVAIAISAVGYGTELLGASLSPVQIGLATIGVLWICTVANFGGARITGQISSITVWGVIIPVVGLCIIGWFWFSPTLYVDSWNPHHAPFFSAVGSSIAMTLWAFLGLESACANTDVVENPERNVPIAVLGGTLGAAVIYIVSTNVIAGIVPNMELANSTAPFGLAFAQMFTPEVGKVIMALMVMSCCGSLLGWQFTIAQVFKSSSDEGYFPKIFSRVTKVDAPVQGMLTIVIIQSGLALMTISPSLNSQFNVLVNLAVVTNIIPYILSMAALVIIQKVANVPPSKAKVANFVAFVGAMYSFYALYSSGEEAMLYGSIVTFLGWTLYGLVSPRFELKNKHG [P0AAF1]	6.73 ± 1.1 h	–	–	5.34 ± 1 h	–	> 8 h	> 16 h	4.53 h	> 16 h	–	–	–
MSQATSMRKRHRFNSRMTRIVLLISFIFFFGRFIYSSVGAWQHHQSKKEAQQSTLSVESPVQR	4.55 h	4.47 h	4.32 h	4.09 ± 0.36 h	1.7 ± 0.046 h	3.19 h	5.95 h	3.526 ± 0.027 h	7.56 ± 0.76 h	–	4.32 ± 0.086 h	4.57 ± 0.97 h
MSQDPFQEREAEKYANPIPSREFILEHLTKREKPASRDELAVELHIEGEEQLEGLRRRLRAMERDGQLVFTRRQCYALPERLDLVKGTVIGHRDGYGFLRVEGRKDDLYLSSEQMKTCIHGDQVLAQPLGADRKGRREARIVRVLVPKTSQIVGRYFTEAGVGFVVPDDSRLSFDILIPPDQIMGARMGFVVVVELTQRPTRRTKAVGKIVEVLGDNMGTGMAVDIALRTHEIPYIWPQAVEQQVAGLKEEVPEEAKAGRVDLRDLPLVTIDGEDARDFDDAVYCEKKRGGGWRLWVAIADVSYYVRPSTPLDREARNRGTSVYFPSQVIPMLPEVLSNGLCSLNPQVDRLCMVCEMTVSSKGRLTGYKFYEAVMSSHARLTYTKVWHILQGDQDLREQYAPLVKHLEELHNLYKVLDKAREERGGISFESEEAKFIFNAERRIERIEQTQRNDAHKLIEECMILANISAARFVEKAKEPALFRIHDKPSTEAITSFRSVLAELGLELPGGNKPEPRDYAELLESVADRPDAEMLQTMLLRSMKQAIYDPENRGHFGLALQSYAHFTSPIRRYPDLTLHRAIKYLLAKEQGHQGNTTETGGYHYSMEEMLQLGQHCSMAERRADEATRDVADWLKCDFMLDQVGNVFKGVISSVTGFGFFVRLDDLFIDGLVHVSSLDNDYYRFDQVGQRLMGESSGQTYRLGDRVEVRVEAVNMDERKIDFSLISSERAPRNVGKTAREKAKKGDAGKKGGKRRQVGKKVNFEPDSAFRGEKKTKPKAAKKDARKAKKPSAKTQKIAAATKAKRAAKKKVAE	6.54 ± 0.13 h	–	5.66 ± 0.29 h	5.35 ± 0.14 h	3.06 ± 0.13 h	6.06 ± 0.13 h	12.1 ± 0.14 h	5.67 ± 0.095 h	9.82 ± 0.13 h	5.679 ± 0.029 h	11.2 ± 0.32 h	5.87 ± 0.12 h
MSQETPASTTEAQIKNKRRISPFWLLPFIALMIASWLIWDSYQDRGNTVTIDFMSADGIVPGRTPVRYQGVEVGTVQDISLSDDLRKIEVKVSIKSDMKDALREETQFWLVTPKASLAGVSGLDALVGGNYIGMMPGKGKEQDHFVALDTQPKYRLDNGDLMIHLQAPDLGSLNSGSLVYFRKIPVGKVYDYAINPNKQGVVIDVLIERRFTDLVKKGSRFWNVSGVDANVSISGAKVKLESLAALVNGAIAFDSPEESKPAEAEDTFGLYEDLAHSQRGVIIKLELPSGAGLTADSTPLMYQGLEVGQLTKLDLNPGGKVTGEMTVDPSVVTLLRENTRIELRNPKLSLSDANLSALLTGKTFELVPGDGEPRKEFVVVPGEKALLHEPDVLTLTLTAPESYGIDAGQPLILHGVQVGQVIDRKLTSKGVTFTVAIEPQHRELVKGDSKFVVNSRVDVKVGLDGVEFLGASASEWINGGIRILPGDKGEMKASYPLYANLEKALENSLSDLPTTTVSLSAETLPDVQAGSVVLYRKFEVGEVITVRPRANAFDIDLHIKPEYRNLLTSNSVFWAEGGAKVQLNGSGLTVQASPLSRALKGAISFDNLSGASASQRKGDKRILYASETAARAVGGQITLHAFDAGKLAVGMPIRYLGIDIGQIQTLDLITARNEVQAKAVLYPEYVQTFARGGTRFSVVTPQISAAGVEHLDTILQPYINVEPGRGNPRRDFELQEATITDSRYLDGLSIIVEAPEAGSLGIGTPVLFRGLEVGTVTGMTLGTLSDRVMIAMRISKRYQHLVRNNSVFWLASGYSLDFGLTGGVVKTGTFNQFIRGGIAFATPPGTPLAPKAQEGKHFLLQESEPKEWREWGTALPK	6.34 ± 0.49 h	6.12 ± 0.52 h	6.516 ± 0.036 h	6.04 ± 0.27 h	3.01 ± 0.3 h	–	–	6.32 ± 0.48 h	13.1 ± 0.76 h	6.43 ± 0.74 h	13.5 ± 0.26 h	6.06 ± 0.19 h
